Results from patent US20180273634A1.
Values joined by “and” are separate entries in the source; they are usually repeats but may differ in a detail not shown here. Equal values may be shown once.

Assays:
[1] = biological target: prostate specific antigen (PSA) (human) (UniProt P07288); assay: SPR, Biacore 3000, PSA amine-coupled on CM4 chip, antibody in flow
[2] = biological target: prostate specific antigen (PSA) (human) (UniProt P07288); assay: SPR, Biacore 3000, PSA amine-coupled on CM4 chip, antibody in flow at 12.5-100 nM
[3] = biological target: prostate specific antigen (PSA) (human) (UniProt P07288); assay: SPR, Biacore 3000, PSA amine-coupled on CM4 chip, antibody in flow; dissociation followed 8 h

Chain of prostate specific antigen (PSA) (human) (P07288 25-261 limits assumed): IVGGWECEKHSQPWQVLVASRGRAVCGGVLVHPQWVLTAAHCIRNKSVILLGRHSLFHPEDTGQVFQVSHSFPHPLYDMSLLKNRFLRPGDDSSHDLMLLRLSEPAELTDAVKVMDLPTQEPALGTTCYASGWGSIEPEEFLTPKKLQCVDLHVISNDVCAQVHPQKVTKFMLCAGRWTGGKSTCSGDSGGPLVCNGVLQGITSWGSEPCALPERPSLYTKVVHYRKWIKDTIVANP

Substance | Kd [1] [pM] | kon [2] | koff [3]
murine 5A10 monoclonal antibody (m5A10) | 20 | 290000 M⁻¹ s⁻¹ and 250000 M⁻¹ s⁻¹ | 6.3e-06 s⁻¹ and 5.4e-06 s⁻¹
m5A10-DFO (antibody) | 20 | 290000 M⁻¹ s⁻¹ | 6.6e-06 s⁻¹
m5A10-DTPA (antibody) | 20 | 270000 M⁻¹ s⁻¹ | 6.3e-06 s⁻¹
m5A10-DOTA (antibody) | 20 | 280000 M⁻¹ s⁻¹ | 6.3e-06 s⁻¹
